Source: publication PMC5955624

Assays:
Assay in all cases: two-hybrid
[1] = biological target: SUMO (small ubiquitin-like modifier, encoded by pmt3) (fission yeast (Schizosaccharomyces pombe)) (UniProt O13351)
[2] = biological target: Tpz1 (fission yeast (Schizosaccharomyces pombe)) (UniProt O14246)
[3] = biological target: chimeric protein SUMO-Tpz1(243-420) (fission yeast (Schizosaccharomyces pombe)) (UniProt O14246)

Sequence of UniProt O13351 (O13351 whole entry): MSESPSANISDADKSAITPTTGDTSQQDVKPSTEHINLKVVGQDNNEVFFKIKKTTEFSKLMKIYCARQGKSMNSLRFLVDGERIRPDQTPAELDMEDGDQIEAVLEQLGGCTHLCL
Sequence of UniProt O14246 (O14246 whole entry): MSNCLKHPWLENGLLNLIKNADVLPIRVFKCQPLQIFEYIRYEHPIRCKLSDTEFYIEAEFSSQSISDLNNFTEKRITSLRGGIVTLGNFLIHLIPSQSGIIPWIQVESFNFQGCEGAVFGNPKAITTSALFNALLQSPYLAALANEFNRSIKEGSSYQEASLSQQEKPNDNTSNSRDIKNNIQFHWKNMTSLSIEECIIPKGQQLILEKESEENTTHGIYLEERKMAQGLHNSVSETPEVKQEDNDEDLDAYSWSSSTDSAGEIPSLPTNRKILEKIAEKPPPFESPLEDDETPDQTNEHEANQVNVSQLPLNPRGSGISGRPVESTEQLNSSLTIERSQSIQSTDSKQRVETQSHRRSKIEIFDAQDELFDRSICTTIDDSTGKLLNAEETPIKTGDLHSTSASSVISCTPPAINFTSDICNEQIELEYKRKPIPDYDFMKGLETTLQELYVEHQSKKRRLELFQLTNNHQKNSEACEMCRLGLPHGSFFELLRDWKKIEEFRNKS

β-galactosidase activity (two-hybrid) (β-galactosidase U) [1]: 50
β-galactosidase activity (two-hybrid) (β-galactosidase U) [2]: 7
β-galactosidase activity (two-hybrid) (β-galactosidase U) [3]: 50
Substance: Ten1Stn1 fusion protein (Ten1, Gly15 linker, Stn1)
